Reference: patent US20080019909A1, “Modulation of Programmed Necrosis” (priority 2003, published 2008)
Where a chain is given by its changes, count along the chain named. Names and notes keep the numbering of the source.

Legend:
[1] = system: TNFR-2+ RIP -/- Jurkat cells (R1.1); assay: TNF cytotoxic assay (cell loss by PI exclusion on FACS), TNFR-2+ RIP -/- cells; assay type: cell-based; conditions: for restoration of response to TNF (TNF killing) by transfected RIP constructs: TNFR-2+ RIP -/- cells reconstituted with RIP mutants, stimulated with TNF
Source text: The results are representative of three experiments.

[2] = system: RIP; assay: Western blot of RIP protein expression in cells treated with GA; assay type: cell-based
[3] = system: TNFR-2-expressing wild-type (4E3) Jurkat cells
Experimental: Cells were harvested and analyzed by PI exclusion on FACS 16 hours post-stimulation and cell loss was calculated as described in Example 1 (infra).

[4] = system: caspase-8 -/- J3.2 cells; assay: TNF cytotoxic assay (cell loss by PI exclusion on FACS), caspase-8 -/- J3.2 cells; conditions: for TNF-induced programmed necrosis, transfected kinase-inactive constructs: caspase-8 -/- J3.2 cells co-transfected with pEGFP-N1, 10 ng/ml rhTNFα, 16 hours, GFP positive cells
[5] = system: FADD -/- I42 cells; assay: TNF cytotoxic assay (cell loss by PI exclusion on FACS), FADD -/- I42 cells; assay type: cell-based; conditions: FADD -/- cells (I42) transiently transfected; TNF 12 hours; GFP+ cells
Experimental: Cells were stimulated with, TNF or anti-Fas antibody (CH11) for 12 hours and cell loss was analyzed on the GFP+ cells by PI exclusion on FACS.
FIG. 8F is a bar graph depicting the results of experiments in which FADD -/- I42 cells and caspase-8 -/- J3.2 cells (both are TNFR-2+) were stimulated with TNF in the presence or absence of zVAD-fmk for 16 hours.

Molecule: COC1=C2C[C@@H](C)C[C@H](OC)[C@H](O)[C@@H](C)/C=C(\C)[C@H](OC(N)=O)[C@@H](OC)/C=C\C=C(/C)C(=O)NC(=CC1=O)C2=O [geldanamycin]
- TNF-induced death (cell loss) ([1]; TNFR-2+ RIP -/- cells (R1.1), 10 ng/ml rhTNFα, 16 hours, or 0.5 mM GA): no effect
- reduction in RIP protein level [2]: > 90%
- cell viability, compound alone [3]: no effect

B1: RIPn: N-terminal cleavage product of RIP (amino acids 1-324) (protein, UniProt Q13546 1-324, looked up, fragment)
chain: MQPDMSLNVIKMKSSDFLESAELDSGGFGKVSLCFHRTQGLMIMKTVYKGPNCIEHNEALLEEAKMMNRLRHSRVVKLLGVIIEEGKYSLVMEYMEKGNLMHVLKAEMSTPLSVKGRIILEIIEGMCYLHGKGVIHKDLKPENILVDNDFHIKIADLGLASFKMWSKLNNEEHNELREVDGTAKKNGGTLYYMAPEHLNDVNAKPTEKSDVYSFAVVLWAIFANKEPYENAICEQQLIMCIKSGNRPDVDDITEYCPREIISLMKLCWEANPEARPTFPGIEEKFRPFYLSQLEESVEEDVKSLKKEYSNENAVVKRMQSLQLD
- restoration of response to TNF (TNF killing) by transfected RIP constructs [1]: failed to restore

B2: p35: known apoptosis inhibitor, transfected plasmid (protein, UniProt P08160 1-299, looked up)
Early 35 kDa protein: MCVIFPVEIDVSQTIIRDCQVDKQTRELVYINKIMNTQLTKPVLMMFNISGPIRSVTRKNNNLRDRIKSKVDEQFDQLERDYSDQMDGFHDSIKYFKDEHYSVSCQNGSVLKSKFAKILKSHDYTDKKSIEAYEKYCLPKLVDERNDYYVAVCVLKPGFENGSNQVLSFEYNPIGNKVIVPFAHEINDTGLYEYDVVAYVDSVQFDGEQFEEFVQSLILPSSFKNSEKVLYYNEASKNKSMIYKALEFTTESSWGKSEKYNWKIFCNGFIYDKKSKVLYVKLHNVTSALNKNVILNTIK
- TNF-induced programmed necrosis, transfected apoptosis inhibitors ([4]; caspase 8 -/- J3.2 cells transfected with plasmids, 12 hours stimulation with TNF): failed to confer protection

B3: kinase-inactive form of apoptosis signaling kinase ASK1: kinase inactive version of ASK1, expressed from transfected plasmid (protein, UniProt Q99683 1-1374, looked up, variant K709R)
Mitogen-activated protein …: MSTEADEGITFSVPPFAPSGFCTIPEGGICRRGGAAAVGEGEEHQLPPPPPGSFWNVESAAAPGIGCPAATSSSSATRGRGSSVGGGSRRTTVAYVINEASQGQLVVAESEALQSLREACETVGATLETLHFGKLDFGETTVLDRFYNADIAVVEMSDAFRQPSLFYHLGVRESFSMANNIILYCDTNSDSLQSLKEIICQKNTMCTGNYTFVPYMITPHNKVYCCDSSFMKGLTELMQPNFELLLGPICLPLVDRFIQLLKVAQASSSQYFRESILNDIRKARNLYTGKELAAELARIRQRVDNIEVLTADIVINLLLSYRDIQDYDSIVKLVETLEKLPTFDLASHHHVKFHYAFALNRRNLPGDRAKALDIMIPMVQSEGQVASDMYCLVGRIYKDMFLDSNFTDTESRDHGASWFKKAFESEPTLQSGINYAVLLLAAGHQFESSFELRKVGVKLSSLLGKKGNLEKLQSYWEVGFFLGASVLANDHMRVIQASEKLFKLKTPAWYLKSIVETILIYKHFVKLTTEQPVAKQELVDFWMDFLVEATKTDVTVVRFPVLILEPTKIYQPSYLSINNEVEEKTISIWHVLPDDKKGIHEWNFSASSVRGVSISKFEERCCFLYVLHNSDDFQIYFCTELHCKKFFEMVNTITEEKGRSTEEGDCESDLLEYDYEYDENGDRVVLGKGTYGIVYAGRDLSNQVRIAIREIPERDSRYSQPLHEEIALHKHLKHKNIVQYLGSFSENGFIKIFMEQVPGGSLSALLRSKWGPLKDNEQTIGFYTKQILEGLKYLHDNQIVHRDIKGDNVLINTYSGVLKISDFGTSKRLAGINPCTETFTGTLQYMAPEIIDKGPRGYGKAADIWSLGCTIIEMATGKPPFYELGEPQAAMFKVGMFKVHPEIPESMSAEAKAFILKCFEPDPDKRACANDLLVDEFLKVSSKKKKTQPKLSALSAGSNEYLRSISLPVPVLVEDTSSSSEYGSVSPDTELKVDPFSFKTRAKSCGERDVKGIRTLFLGIPDENFEDHSAPPSPEEKDSGFFMLRKDSERRATLHRILTEDQDKIVRNLMESLAQGAEEPKLKWEHITTLIASLREFVRSTDRKIIATTLSKLKLELDFDSHGISQVQVVLFGFQDAVNKVLRNHNIKPHWMFALDSIIRKAVQTAITILVPELRPHFSLASESDTADQEDLDVEDDHEEQPSNQTVRRPQAVIEDAVATSGVSTLSSTVSHDSQSAHRSLNVQLGRMKIETNRLLEELVRKEKELQALLHRAIEEKDQEIKHLKLKSQPIEIPELPVFHLNSSGTNTEDSELTDWLRVNGADEDTISRFLAEDYTLLDVLYYVTRDDLKCLRLRGGMLCTLWKAIIDFRNKQT
- TNF-induced programmed necrosis, transfected kinase-inactive constructs [4]: not

B4: RIPc: C-terminal fragment of RIP (amino acids 325-671) (protein, UniProt Q13546 325-671, looked up, fragment)
chain: CVAVPSSRSNSATEQPGSLHSSQGLGMGPVEESWFAPSLEHPQEENEPSLQSKLQDEANYHLYGSRMDRQTKQQPRQNVAYNREEERRRRVSHDPFAQQRPYENFQNTEGKGTAYSSAASHGNAVHQPSGLTSQPQVLYQNNGLYSSHGFGTRPLDPGTAGPRVWYRPIPSHMPSLHNIPVPETNYLGNTPTMPFSSLPPTDESIKYTIYNSTGIQIGAYNYMEIGGTSSSLLDSTNTNFKEEPAAKYQAIFDNTTSLTDKHLDPIRENLGKHWKNCARKLGFTQSQIDEIDHDYERDGLKEKVYQMLQKWVMREGIKGATVGKLAQALHQCSRIDLLSSLIYVSQN
- restoration of response to TNF (TNF killing) by transfected RIP constructs [1]: restored

B5: kinase-inactive RIP: kinase inactive version of RIP (K45A mutation), expressed from transfected plasmid (protein, UniProt Q13546 1-671, looked up, variant K45A)
Receptor-interacting …: MQPDMSLNVIKMKSSDFLESAELDSGGFGKVSLCFHRTQGLMIMATVYKGPNCIEHNEALLEEAKMMNRLRHSRVVKLLGVIIEEGKYSLVMEYMEKGNLMHVLKAEMSTPLSVKGRIILEIIEGMCYLHGKGVIHKDLKPENILVDNDFHIKIADLGLASFKMWSKLNNEEHNELREVDGTAKKNGGTLYYMAPEHLNDVNAKPTEKSDVYSFAVVLWAIFANKEPYENAICEQQLIMCIKSGNRPDVDDITEYCPREIISLMKLCWEANPEARPTFPGIEEKFRPFYLSQLEESVEEDVKSLKKEYSNENAVVKRMQSLQLDCVAVPSSRSNSATEQPGSLHSSQGLGMGPVEESWFAPSLEHPQEENEPSLQSKLQDEANYHLYGSRMDRQTKQQPRQNVAYNREEERRRRVSHDPFAQQRPYENFQNTEGKGTAYSSAASHGNAVHQPSGLTSQPQVLYQNNGLYSSHGFGTRPLDPGTAGPRVWYRPIPSHMPSLHNIPVPETNYLGNTPTMPFSSLPPTDESIKYTIYNSTGIQIGAYNYMEIGGTSSSLLDSTNTNFKEEPAAKYQAIFDNTTSLTDKHLDPIRENLGKHWKNCARKLGFTQSQIDEIDHDYERDGLKEKVYQMLQKWVMREGIKGATVGKLAQALHQCSRIDLLSSLIYVSQN
- restoration of response to TNF (TNF killing) by transfected RIP constructs [1]: restored
- TNF-induced programmed necrosis, transfected kinase-inactive constructs [4]: strongly suppressed

B6: RIP-D324A: non-cleavable mutant of RIP (protein, UniProt Q13546 1-671, looked up, variant D324A)
Receptor-interacting …: B5 Receptor-interacting … with A45K, D324A
- restoration of response to TNF (TNF killing) by transfected RIP constructs [1]: potently restored

B7: wild-type RIP: wild-type receptor-interacting protein expressed in RIP -/- cells (protein, UniProt Q13546 1-671, looked up)
Receptor-interacting …: B5 Receptor-interacting … with A45K
- restoration of response to TNF (TNF killing) by transfected RIP constructs [1]: potently restored

B8: full-length FADD: full-length FADD transiently transfected into FADD -/- cells (protein, UniProt Q13158 1-208, looked up)
chain: MDPFLVLLHSVSSSLSSSELTELKFLCLGRVGKRKLERVQSGLDLFSMLLEQNDLEPGHTELLRELLASLRRHDLLRRVDDFEAGAAAGAAPGEEDLCAAFNVICDNVGKDWRRLARQLKVSDTKIDSIEDRYPRNLTERVRESLRIWKNTEKENATVAHLVGALRSCQMNLVADLVQEVQQARDLQNRSGAMSPMSWNSDASTSEAS
modifications: full-length
notes: full-length FADD transiently transfected into FADD -/- cells
- TNF-induced programmed necrosis after reconstitution of FADD [5]: suppression
